Experimental data taken from patent US20260234276A1.

Legend:
[1] = molecular target: human CCR8 (human) (UniProt P51685); assay: flow cytometry on lymphocytes from ascitic ovarian cancer, 0.1 µg mAb
[2] = molecular target: human CCR8 (human) (UniProt P51685); assay: flow cytometry on lymphocytes from ascitic ovarian cancer, 0.5 µg mAb
[3] = molecular target: human CCR8 (human) (UniProt P51685); assay: flow cytometry on lymphocytes from ascitic ovarian cancer, 1 µg mAb
[4] = molecular target: human CCR8 (human) (UniProt P51685); assay: flow cytometry, hCCR8 transfected CHOK1 cells

Row | Positive cells [1] [%] | Positive cells [2] [%] | Positive cells [3] [%] | % positive cells [4] [%] | MFI fold change to isotype ctrl [4] [fold] | Substance
1 | 2.94 | 3.81 | 5.06 |  |  | Isotype ctrl (antibody)
2 | 9.5 |  | 8.64 | 86.5 | 19.8 | L263G8 (antibody)
